Measurements taken from PMC314469, “Protein Interaction Networks by Proteome Peptide Scanning” (PLoS Biology, 2004).

T1: Myo5 SH3 (MYO5_YEAST), Q04439
T1 chain: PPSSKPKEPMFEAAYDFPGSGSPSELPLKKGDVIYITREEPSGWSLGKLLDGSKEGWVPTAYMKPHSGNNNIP

T2: Boi2 SH3 (BOI2_YEAST), P39969
T2 chain: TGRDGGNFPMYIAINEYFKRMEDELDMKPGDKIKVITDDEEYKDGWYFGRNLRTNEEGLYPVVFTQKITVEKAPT

T3: Yhr016c SH3 (YSC84_YEAST), P32793
T3 chain: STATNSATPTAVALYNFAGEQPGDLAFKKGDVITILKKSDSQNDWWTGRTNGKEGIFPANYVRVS

T4: Yfr024 SH3 (LSB3_YEAST), P43603
T4 chain: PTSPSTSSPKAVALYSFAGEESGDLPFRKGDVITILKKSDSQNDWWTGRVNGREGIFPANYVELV

T5: Rvs167 SH3 (RV167_YEAST), P39743
T5 chain: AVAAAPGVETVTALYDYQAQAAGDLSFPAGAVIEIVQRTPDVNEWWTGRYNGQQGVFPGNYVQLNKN

T6: Boi1 SH3 (BOI1_YEAST), P38041
T6 chain: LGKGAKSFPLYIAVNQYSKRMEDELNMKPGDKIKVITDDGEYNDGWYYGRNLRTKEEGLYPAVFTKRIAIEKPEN


Experiments:
Assay in all cases: SPOT array
[1] = target: T1, Myo5 SH3 (MYO5_YEAST), Q04439
[2] = target: Sho1 SH3 (SHO1_YEAST), P40073
[3] = target: T2, Boi2 SH3 (BOI2_YEAST), P39969
[4] = target: T3, Yhr016c SH3 (YSC84_YEAST), P32793
[5] = target: T4, Yfr024 SH3 (LSB3_YEAST), P43603
[6] = target: T5, Rvs167 SH3 (RV167_YEAST), P39743
[7] = target: T6, Boi1 SH3 (BOI1_YEAST), P38041

Sho1 SH3 (SHO1_YEAST), P40073, sequence (P40073 295-366): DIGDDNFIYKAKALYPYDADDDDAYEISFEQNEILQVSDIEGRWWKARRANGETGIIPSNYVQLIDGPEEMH

Row | normalised SPOT signal, Boehringer light units (BLU); mean over the file's lines of this peptide [1] | normalised SPOT signal, Boehringer light units (BLU); mean over the file's lines of this peptide [2] | normalised SPOT signal, Boehringer light units (BLU); mean over the file's lines of this peptide [3] | normalised SPOT signal, Boehringer light units (BLU); mean over the file's lines of this peptide [4] | normalised SPOT signal, Boehringer light units (BLU); mean over the file's lines of this peptide [5] | normalised SPOT signal, Boehringer light units (BLU); mean over the file's lines of this peptide [6] | normalised SPOT signal, Boehringer light units (BLU); mean over the file's lines of this peptide [7] | Binder
1 | 158 | 7.4 | 15.5 | 43.5 | 470 | 85.3 | 30.1 | TNGPRYSPQNPRPF [YMR124W 350-363]
2 | 535 | 64.1 | 13 | 31.6 | 304 | 30.6 | 1510 | TLKKKKTPKKPIAA [YKR084C 77-90]
3 | 1450 | 417 | 1140 | 634 | 4080 | 1960 | 2890 | TQMKRLKPVSPGLR [YEL050C 91-104]
4 | 694 | 25 | 37.3 | 12.6 | 321 | 156 | 495 | TKKRKLGPKAPNPL [YOR004W 192-205]
5 | 150 | 36.1 | 19.3 | 15.5 | 50.1 | 105 | 52.5 | TKTDKSYPMSPVDA [YOR208W 444-457]
6 | 910 | 47.8 | 52.3 | 217 | 588 | 48 | 292 | TMKNKPKPTPPSPP [YPR171W 298-311]
7 | 205 | 28100 | 0 | 64.8 | 92.4 | 64.3 | 0 | TLDEKNLPRLPTPF [YKR055W 36-49]
8 | 212 | 32.4 | 15.4 | 57.9 | 27 | 85.7 | 58.2 | TLDEKESPSVPPTV [YKL148C 624-637]
9 | 445 | 57.7 | 6.1 | 2.8 | 0.2 | 23.4 | 295 | TKFTKPKPKQPVLP [YLR439W 17-30]
10 | 232 | 60.1 | 32.4 | 159 | 3700 | 410 | 17200 | TQPVRKNPEAPARR [YOR042W 151-164]
11 | 27.7 | 44.1 | 21.1 | 43.3 | 157 | 189 | 2030 | TKRQRGEPSEPQQD [YGR241C 267-280]
12 | 158 | 56.3 | 11.1 | 21.2 | 95.1 | 32.6 | 546 | TKAKKEKPKPPKPI [YMR044W 280-293]
13 | 76.4 | 86.9 | 6.9 | 82.1 | 304 | 130 | 95.6 | TINSRFYPPIPISE [YMR154C 67-80]
14 | 443 | 34.7 | 7.5 | 34.2 | 33.7 | 28 | 57.1 | TPQSRFPPYSPLLP [YDR103W 267-280]
15 | 73.6 | 30.3 | 27.5 | 42.6 | 60.2 | 120 | 60.6 | TLNDRQIPLSPDQM [YAL026C 387-400]
16 | 168 | 50.1 | 2.7 | 23.7 | 7.5 | 34.8 | 53.6 | TNSVKATPVPPTLA [YLR337C 365-378]
